Data: patent publication US20050075291

Biological target: reconstituted tissue factor (Innovin, Dade) (UniProt P13726)
Sequence of UniProt P13726 (P13726 33-295): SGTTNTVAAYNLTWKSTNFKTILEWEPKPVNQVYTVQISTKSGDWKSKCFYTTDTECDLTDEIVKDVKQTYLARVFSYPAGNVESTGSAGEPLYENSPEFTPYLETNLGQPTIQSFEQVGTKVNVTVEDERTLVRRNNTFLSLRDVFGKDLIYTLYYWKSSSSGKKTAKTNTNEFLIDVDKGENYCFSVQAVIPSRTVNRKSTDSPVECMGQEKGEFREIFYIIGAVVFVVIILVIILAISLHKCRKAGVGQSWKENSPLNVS

Human factor VIIa-T9Q11E33
competition assay (clotting time as a function of added FFR-VIIa, 0 to 3.5 nM): Human factor VIIa-T9Q11E33 exhibited a severe loss of competitive binding affinity

factor VII with leucine for phenylalanine at position 5 (which contained the Q11E33 mutations)
competition with active-site modified VIIa (0-3.2 nM), clotting time: had much lower activity than the Q11E33 mutant
